Source: the supplement of paper PMC12764529
± gives the half width of the 95% confidence interval.

Experiments:
[1] = folding stability dG unfold (combined trypsin and chymotrypsin); higher = more stable
Summary of the method: (§1)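 How resistant each design was to proteolysis was captured as K50, inferred by Bayesian fitting of sequencing counts. Unfolding free energy was then derived relative to a sequence-predicted unfolded-state K50 and a shared folded-state K50, per protease or combined. Digestion used trypsin and chymotrypsin at 11 threefold-diluted concentrations plus a no-protease condition, on mini-proteins under 80 residues without cysteine in a PA-tagged cDNA display construct. Designs were kept only when AlphaFold2 dimer inter-PAE was above 15.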

[2] = folding stability dG unfold from chymotrypsin proteolysis; higher = more stable
Summary of the method: as §1

| Sequence | folding stability dG unfold [1] [kcal/mol] | folding stability dG unfold [2] [kcal/mol] |
| --- | --- | --- |
| SAGGSAGGYRITIKDPDGVKIEIWQGPNGMMPIKVENPNGKKRERMVNGPPGDIEDFLKELLKQSAGGSAGG [r6_27_TrROS] | -0.125 ± 0.59 | 0.378 ± 0.31 |
| SAGGSAGHMIEKVTTTSPDNTTTTVSLTPPDAPLDIKLPNGASATQTPLPGGRLRVTTTTTTPAAASAGGSA [r15_523_JUSTAS] | 0.338 ± 0.21 | 0.841 ± 0.062 |
| SAGGSAGMPTTVFLTRPGPRAITMRTDPVSGTVTFTLPSGEVTTTPLSTVKELKVPPDIATVTILASAGGSA [r15_1043_JUSTAS] | -0.609 ± 0.24 | -0.365 ± 0.29 |
| SAGGSAKIEIEWNPENGMVRVKAEYPNDGKKKEHTFNPGDSPKQLADDINQEFKKPVEIDEIEWYPSAGGSA [r15_544_TrROS] | 0.153 ± 0.44 | 0.683 ± 0.04 |
| SAGGSAKLPPGQRVRLEIEHPAHGWTHEHTFPIKSVEEFKQSLEIPMPNPNGEPMPMRVKILDVEKSAGGSA [r15_797_TrROS] | < -1 | -0.363 ± 0.48 |
| SAGGSALPPGQKIKMKFPDDGKKMTITFNPGQNNIEIENDGKKETYPFDSVEDLLDEFGWKVLDIESAGGSA [r15_500_TrROS] | -0.0488 ± 0.19 | 0.465 ± 0.073 |
| SAGGSALTAKEARELVRNYAREHNPDYKVKGIEVERLPDKWVHADIEVRPPENPGQEHEWSIWIPYSAGGSA [r15_627_TrROS] | -0.986 ± 0.31 | -0.418 ± 0.33 |
| SAGGSAMIEVRTVAGEPVEVTPIPEDEVLVARTPGGRKAPFLLGEDVLRELVVEPDAPPDLFIVPGSAGGSA [r15_709_TrMRF] | -0.617 ± 0.13 | -0.141 ± 0.093 |
| SAGGSAMTKKTVVTIPLPPGAEDLSPEEVERRVRDELAAEPARPDVTVEVERLPPEPVVRVTITEASAGGSA [r15_1029_JUSTAS] | -0.307 ± 0.2 | 0.0943 ± 0.046 |
| SAGGSAMTTRATATPQPDGTVTVTVEAPGFSRTFTAPPGDLAASLAAVERELPPGEPRVVTSAAAGSAGGSA [r15_925_JUSTAS] | -0.233 ± 0.067 | 0.346 ± 0.059 |
| SAGGSAMVIDSKEVLEDDVLVTTTAITVDPSTGIKTEDVEEKPVPLPDGTPLPPRKTTRTTPLANASAGGSA [r15_623_JUSTAS] | 0.175 ± 0.13 | 0.784 ± 0.025 |
| SAGGSAPKIYSVEEKELPDNYRLIVFKADKSDPEFIEEIAELLPKEKVEPLSKSEDGYYVVRLPLESAGGSA [r15_386_TrMRF] | -0.0414 ± 0.26 | 0.0639 ± 0.23 |
| SAGGSAPKRLRIKFKDPDGKTQKIKIPPGIKSINIQPNNDYVSLMIHNPEDGQSRMLPPMRVDEITSAGGSA [r15_133_TrROS] | < -1 | -0.899 ± 0.48 |
| SAGGSAPPEVVEVPPVELPDYTVSPPRFAPEPTLRERTATPPDGPEFSVTTRIDPETGVPEVVVAASAGGSA [r15_84_JUSTAS] | 0.211 ± 0.067 | 0.718 ± 0.017 |
| SAGGSASMKTTTVTLPLDPAQLAEAIAALREAVAPDEAAEVTFVHPHAPTSLTVTISRSDVTLNAASAGGSA [r15_257_JUSTAS] | -0.17 ± 0.11 | 0.706 ± 0.074 |
| SAGGSASPVLVELPEGVRVELPPDTMTVTIRLPNGTEVVVPLENPEPPDPAAALARARAVVAALPESAGGSA [r15_748_JUSTAS] | 0.185 ± 0.11 | 0.774 ± 0.1 |
| SAGGSASSEFNTDKKPPPLPKKSKVINLNIPTPPDETEEEAKKKAEEIANKLKEEGKYGEVTVKIESAGGSA [r15_450_JUSTAS] | 0.5 ± 0.41 | 0.756 ± 0.17 |
| SAGGSASSGSMPLTKETDPLDGAGEVERVLYEDGTVVEIVTGADGKPTLRTRKVEIEPPEPLLLLRSAGGSA [r15_478_JUSTAS] | < -1 | -0.501 ± 0.63 |
